Drawing on FireProtDB (doi:10.1021/bi00454a022), this text covers denaturant m value and unfolding free energy for one protein.

Values joined by “and” are separate entries in the source; they are usually repeats but may differ in a detail not shown here. Equal values may be shown once.

The conditions of this data set: Bos taurus; pH 7; 25 °C; GdnHCl; CD; Sodium phosphate 20 mM; reversible: yes; whole UniProt chain shown.

B1: Gamma-crystallin B wild type, P02526 (protein)
chain: MGKITFYEDRGFQGHCYECSSDCPNLQPYFSRCNSIRVDSGCWMLYERPNYQGHQYFLRRGDYPDYQQWMGFNDSIRSCRLIPQHTGTFRMRIYERDDFRGQMSEITDDCPSLQDRFHLTEVHSLNVLEGSWVLYEMPSYRGRQYLLRPGEYRRYLDWGAMNAKVGSLRRVMDFY
For B1, the denaturant m value stood at 1.3 kcal/mol/M; the unfolding free energy was 5.2 kcal/mol and 6.5 kcal/mol.
